# Assay results taken from IntAct's records for PubMed 25938661.
# B1: Repulsive guidance molecule B (Homo sapiens), Q6NW40 (parent)
# chain: MGLRAAPSSAAAAAAEVEQRRSPGLCPPPLELLLLLLFSLGLLHAGDCQQPAQCRIQKCTTDFVSLTSHLNSAVDGFDSEFCKALRAYAGCTQRTSKACRGNLVYHSAVLGISDLMSQRNCSKDGPTSSTNPEVTHDPCNYHSHAGAREHRRGDQNPPSYLFCGLFGDPHLRTFKDNFQTCKVEGAWPLIDNNYLSVQVTNVPVVPGSSATATNKITIIFKAHHECTDQKVYQAVTDDLPAAFVDGTTSGGDSDAKSLRIVERESGHYVEMHARYIGTTVFVRQVGRYLTLAIRMPEDLAMSYEESQDLQLCVNGCPLSERIDDGQGQVSAILGHSLPRTSLVQAWPGYTLETANTQCHEKMPVKDIYFQSCVFDLLTTGDANFTAAAHSALEDVEALHPRKERWHIFPSSGNGTPRGGSDLSVSLGLTCLILIVFL
# partner: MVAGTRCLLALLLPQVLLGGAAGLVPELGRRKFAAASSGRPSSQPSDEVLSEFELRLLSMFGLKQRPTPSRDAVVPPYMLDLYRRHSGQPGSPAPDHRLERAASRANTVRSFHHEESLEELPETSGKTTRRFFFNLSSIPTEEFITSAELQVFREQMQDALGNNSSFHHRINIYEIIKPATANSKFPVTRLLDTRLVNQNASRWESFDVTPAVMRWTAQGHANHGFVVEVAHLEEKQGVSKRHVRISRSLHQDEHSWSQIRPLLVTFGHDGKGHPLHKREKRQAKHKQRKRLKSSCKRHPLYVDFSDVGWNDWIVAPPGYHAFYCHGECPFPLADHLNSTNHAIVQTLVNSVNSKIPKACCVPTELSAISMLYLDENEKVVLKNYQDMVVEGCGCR
# B2: Hemojuvelin (Homo sapiens), Q6ZVN8-1 (parent)
# chain: MGEPGQSPSPRSSHGSPPTLSTLTLLLLLCGHAHSQCKILRCNAEYVSSTLSLRGGGSSGALRGGGGGGRGGGVGSGGLCRALRSYALCTRRTARTCRGDLAFHSAVHGIEDLMIQHNCSRQGPTAPPPPRGPALPGAGSGLPAPDPCDYEGRFSRLHGRPPGFLHCASFGDPHVRSFHHHFHTCRVQGAWPLLDNDFLFVQATSSPMALGANATATRKLTIIFKNMQECIDQKVYQAEVDNLPVAFEDGSINGGDRPGGSSLSIQTANPGNHVEIQAAYIGTTIIIRQTAGQLSFSIKVAEDVAMAFSAEQDLQLCVGGCPPSQRLSRSERNRRGAITIDTARRLCKEGLPVEDAYFHSCVFDVLISGDPNFTVAAQAALEDARAFLPDLEKLHLFPSDAGVPLSSATLLAPLLSGLFVLWLCIQ
# partner: B1 partner
# Variants of: B1
# Conditions: with bmp2_human BMP2, P12643
row,effect of a mutation on the interaction,Variant
1,decreasing interaction strength,H106R

# Variants of: B2
# Conditions: with bmp2_human BMP2, P12643
row,effect of a mutation on the interaction,Variant
1,decreasing interaction strength,L101P
2,decreasing interaction strength,G99R
